From publication PMC8614764, “Sulfane Sulfur Is a Strong Inducer of the Multiple Antibiotic Resistance Regulator MarR in Escherichia coli” (Antioxidants, 2021)
Substitutions are numbered along the chain they refer to.

Legend:
[1] = target: T1, MarR-5XS C47S;C51S;C54S;C108S;C111S (Escherichia coli MG1655) (UniProt P27245); assay: EMSA; conditions: EMSA: 10 mM Tris, 50 mM KCl, 5% glycerin, pH 8.0, 25 C, 30 min, 20 nM probe, 15 uL; 6% native PAGE
T1 sequence: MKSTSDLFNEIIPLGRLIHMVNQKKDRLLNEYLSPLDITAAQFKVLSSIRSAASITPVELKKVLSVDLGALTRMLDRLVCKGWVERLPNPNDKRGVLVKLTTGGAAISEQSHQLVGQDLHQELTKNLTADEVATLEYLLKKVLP

[2] = target: T2, MarR (Escherichia coli MG1655) (UniProt P27245); assay: EMSA; conditions: EMSA: 10 mM Tris, 50 mM KCl, 5% glycerin, pH 8.0, 25 C, 30 min, 20 nM probe, 15 uL; 6% native PAGE
T2 sequence: T1 sequence with S47C, S51C, S54C, S108C, S111C

P27245 = assay: SEC; Superdex-200, 10 mM Tris-HCl pH 8.0, 100 mM NaCl; MarR-5XS (25 µM) after 400 µM H2Sn for 20 min; dimers to tetramer; mass calibrated with BSA (67 kDa) and T7 RNA polymerase (99 kDa)
[3] = target: the molecule itself; assay: as above
[4] = target: the molecule itself; assay: SEC; Superdex-200, 10 mM Tris-HCl pH 8.0, 100 mM NaCl; untreated MarR-5XS, 25 µM; monomers to dimer
[5] = target: the molecule itself; assay: cross-linking; LC-MS/MS of tryptic peptides of MarR reacted with 10-fold H2Sn, anaerobic, room temperature, 30 min; free thiols blocked with iodoacetamide; disulfide- and trisulfide-linked Cys80 peptides identified

## CATCGCATTGAACAAAACTTGAACCGATTTAGCAAAACGTGGCATCGGTCAATTCATTCATTTGACTTATACTTGCCTGGGCAATATTATCCCCTGCAAC (double strand) [marRAB promoter EMSA probe]
[1]
  binding: binds
[2]
  binding: binds

B1: H2Sn-treated MarR-5XS (protein)
chain: T1 sequence
P27245
  percent of protein as dimer (SEC peak area): the dimer, tetramer, and multimer represented 37.4%, 54.1%, and 8.5%
  percent of protein as multimer (SEC peak area): the dimer, tetramer, and multimer represented 37.4%, 54.1%, and 8.5%
  percent of protein as tetramer (SEC peak area): the dimer, tetramer, and multimer represented 37.4%, 54.1%, and 8.5%

B2: H2Sn-treated MarR-5XS (natural protein)
chain: T1 sequence
modifications: Cys80 disulfide between chains after H2Sn treatment (disulfide-stabilized tetramer)
notes: Multiple antibiotic resistance regulator MarR of E. coli MG1655, gene b1530; primers run from the GTG start codon to the stop codon; all Cys except Cys80 changed to Ser; treated with polysulfide (H2Sn); The treated sample is a mixture of dimer, tetramer and possibly multimers by SEC; the tetramer is the main species; The disulfide and trisulfide at Cys80 were identified by LC-MS/MS on treated …
[3]
  stoichiometry N: 4

B3: MarR-5XS (untreated) (natural protein)
chain: T1 sequence
notes: Multiple antibiotic resistance regulator MarR of E. coli MG1655, gene b1530; primers run from the GTG start codon to the stop codon; all Cys except Cys80 changed to Ser; Made from pET30a; Primarily a dimer by SEC; also called MarR/5CS; MarR-5CS; source: E. coli BL21(DE3), purified (Ni-NTA, PD-10 desalting) under anaerobic conditions
[4]
  stoichiometry N: 2

B4: H2Sn-treated MarR (natural protein)
chain: T1 sequence with S47C, S51C, S54C, S108C, S111C
modifications: Cys80 linked to Cys80 of another chain by a disulfide (Cys80-Cys80) or trisulfide (Cys80-S-Cys80) bond
notes: Multiple antibiotic resistance regulator MarR of E. coli MG1655, gene b1530; primers run from the GTG start codon to the stop codon; treated with polysulfide (H2Sn); SEC was done only with MarR-5XS; The vector pET30a may add further residues between the His tag and MarR (surmised from the primer); also called pET30-MarR product; source: E. coli BL21, purified (Ni-NTA) in an anaerobic chamber, …
[5]
  binding result: binds
